Data reported in patent publication US20050163775A1, “Combination therapy for B cell disorders” (Genentech, Inc., priority 2003, published 2005).
Bridges are numbered along the chain shown (N, C = ends). Where no end group is shown, it is not given here.

B1: SEQ ID NO 110 (peptide)
peptide: ECFDSLVRLWVPCNLLR
B2: SEQ ID NO 74 (peptide)
peptide: ECFDLLVRAWVPCWLRL
B3: SEQ ID NO 108 (peptide)
peptide: ECFDRLVNLWVDCALLN
modifications: disulfide 2-13 (inferred)
B4: SEQ ID NO 91 (peptide)
peptide: ECFDLLVRSWVPCTLLS
B5: SEQ ID NO 97 (peptide)
peptide: ECFDILVDRWVPCAILH
modifications: disulfide 2-13 (inferred)
B6: SEQ ID NO 99 (peptide)
peptide: ECFDPLVARWVPCHLIN
modifications: disulfide 2-13 (inferred)
B7: SEQ ID NO 135 (peptide)
peptide: ECFDPLVNAWVPCAVLH
modifications: disulfide 2-13 (inferred)
B8: SEQ ID NO 76 (peptide)
peptide: ECFDLLVRRWVDCAFLH
B9: SEQ ID NO 75 (peptide)
peptide: ECFDLLVRRWVPCGLLR
B10: SEQ ID NO 67 (peptide)
peptide: ECFDLLVRKWVPCQVLG
B11: SEQ ID NO 141 (peptide)
peptide: ECFDSLVRIWVPCGLID
B12: SEQ ID NO 72 (peptide)
peptide: ECFDLLVRAWVRCDMLL
B13: SEQ ID NO 69 (peptide)
peptide: ECFDLLVRSWVPCGTLM
B14: SEQ ID NO 83 (peptide)
peptide: ECFDLLVRQWVPCGALG
B15: SEQ ID NO 66 (peptide)
peptide: ECFDLLVRRWVPCEMLG
B16: SEQ ID NO 113 (peptide)
peptide: ECFDRLVNRWVPCNLIV
modifications: disulfide 2-13 (inferred)
B17: SEQ ID NO 109 (peptide)
peptide: ECFDVLVSAWVDCARLN
modifications: disulfide 2-13 (inferred)
B18: SEQ ID NO 102 (peptide)
peptide: ECFDLLVNRWVDCRLLI
B19: SEQ ID NO 138 (peptide)
peptide: ECFDPLVRDWVPCDLIH
modifications: disulfide 2-13 (inferred)
B20: SEQ ID NO 128 (peptide)
peptide: ECFDVLVNAWVDCAVLR
modifications: disulfide 2-13 (inferred)
B21: SEQ ID NO 96 (peptide)
peptide: ECFDLLVRGWVDCSLLL
B22: SEQ ID NO 101 (peptide)
peptide: ECFDSLVNAWVPCSAIR
modifications: disulfide 2-13 (inferred)
B23: SEQ ID NO 84 (peptide)
peptide: ECFDLLVRAWVPCNELR
B24: SEQ ID NO 129 (peptide)
peptide: ECFDGLVNAWVDCGLLR
B25: SEQ ID NO 132 (peptide)
peptide: ECFDVLVRAWVPCRALT
modifications: disulfide 2-13 (inferred)
B26: SEQ ID NO 98 (peptide)
peptide: ECFDRLVGHWVPCAALI
modifications: disulfide 2-13 (inferred)
B27: SEQ ID NO 106 (peptide)
peptide: ECFDPLVGHWVPCSVLT
modifications: disulfide 2-13 (inferred)
B28: SEQ ID NO 100 (peptide)
peptide: ECFDPLVRVWVDCSILD
modifications: disulfide 2-13 (inferred)
B29: SEQ ID NO 103 (peptide)
peptide: ECFDPLVRIWVACDRLA
B30: SEQ ID NO 140 (peptide)
peptide: ECFDTLVRAWVPCSHLT
modifications: disulfide 2-13 (inferred)
B31: SEQ ID NO 65 (peptide)
peptide: ECFDLLVRQWVPCERIR
B32: SEQ ID NO 77 (peptide)
peptide: ECFDLLVRSWVPCSSLG
B33: SEQ ID NO 105 (peptide)
peptide: ECFDLLVRAWVPCHLID
B34: SEQ ID NO 130 (peptide)
peptide: ECFDPLVRHWVPCRALD
B35: SEQ ID NO 136 (peptide)
peptide: ECFDPLVLRWVPCSALH
modifications: disulfide 2-13 (inferred)
B36: SEQ ID NO 88 (peptide)
peptide: ECFDLLVRQWVPCRALM
B37: SEQ ID NO 90 (peptide)
peptide: ECFDLLVRDWVPCSLLF
B38: SEQ ID NO 70 (peptide)
peptide: ECFDLLVRSWVPCHMLR
B39: SEQ ID NO 107 (peptide)
peptide: ECFDPLVNRWVDCVALH
modifications: disulfide 2-13 (inferred)
B40: SEQ ID NO 142 (peptide)
peptide: ECFDSLVNAWVPCHVLT
modifications: disulfide 2-13 (inferred)
B41: SEQ ID NO 89 (peptide)
peptide: ECFDLLVRAWVPCSYLS
B42: SEQ ID NO 134 (peptide)
peptide: ECFDDLVRNWVPCALLN
B43: SEQ ID NO 137 (peptide)
peptide: ECFDALVHRWVPCDLLR
B44: SEQ ID NO 93 (peptide)
peptide: ECFDLLVRGWVPCSVLQ
B45: SEQ ID NO 86 (peptide)
peptide: ECFDLLVRRWVPCSWLL
B46: SEQ ID NO 92 (peptide)
peptide: ECFDLLVRKWVPCSTFH
modifications: disulfide 2-13 (inferred)
B47: SEQ ID NO 95 (peptide)
peptide: ECFDLLVRQWVSCELLS
B48: SEQ ID NO 82 (peptide)
peptide: ECFDLLVRVWVPCSRLY
B49: SEQ ID NO 85 (peptide)
peptide: ECFDLLVREWVPCRILQ
B50: SEQ ID NO 80 (peptide)
peptide: ECFDLLVRSWVPCYSLK
B51: SEQ ID NO 104 (peptide)
peptide: ECFDPLVGRWVPCTLLH
modifications: disulfide 2-13 (inferred)
B52: SEQ ID NO 79 (peptide)
peptide: ECFDLLVRRWVPCELLV
B53: SEQ ID NO 87 (peptide)
peptide: ECFDLLVRRWVPCSLVK
B54: SEQ ID NO 73 (peptide)
peptide: ECFDLLVRGWVPCEKLM
B55: SEQ ID NO 112 (peptide)
peptide: ECFDILVNAWVPCRVIG
modifications: disulfide 2-13 (inferred)
B56: SEQ ID NO 81 (peptide)
peptide: ECFDLLVRQWVSCQVFA
modifications: disulfide 2-13 (inferred)
B57: SEQ ID NO 131 (peptide)
peptide: ECFDDLVRHWVPCDLLT
B58: SEQ ID NO 68 (peptide)
peptide: ECFDLLVRTWVECSLLN
B59: SEQ ID NO 139 (peptide)
peptide: ECFDLLVNSWVPCSVIA
modifications: disulfide 2-13 (inferred)
B60: SEQ ID NO 71 (peptide)
peptide: ECFDLLVRTWVPCQAIL
modifications: disulfide 2-13 (inferred)
B61: SEQ ID NO 94 (peptide)
peptide: ECFDLLVRAWVPCSVLK
B62: SEQ ID NO 133 (peptide)
peptide: ECFDILVNRWVPCGALT
modifications: disulfide 2-13 (inferred)

Target: T1, human BAFF (residues 82-285) (human, UniProt Q9Y275 82-285)
T1 construct: Coated on plates in the ELISAs; also used biotinylated or free in solution for phage sorting; also called BAFF82-285; BLyS82-285
Experiment: phage display selection on BAFF

T1 sequence (Q9Y275 82-285): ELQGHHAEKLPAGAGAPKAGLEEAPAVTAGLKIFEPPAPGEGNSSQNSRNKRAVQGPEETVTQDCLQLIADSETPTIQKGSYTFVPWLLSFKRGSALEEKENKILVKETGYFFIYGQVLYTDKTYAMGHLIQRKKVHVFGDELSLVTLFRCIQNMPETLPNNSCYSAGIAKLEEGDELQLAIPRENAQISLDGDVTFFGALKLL

Binder | binding result
B1 | binds
B2 | binds
B3 | binds
B4 | binds
B5 | binds
B6 | binds
B7 | binds
B8 | binds
B9 | binds
B10 | binds
B11 | binds
B12 | binds
B13 | binds
B14 | binds
B15 | binds
B16 | binds
B17 | binds
B18 | binds
B19 | binds
B20 | binds
B21 | binds

Binder | binding result
B22 | binds
B23 | binds
B24 | binds
B25 | binds
B26 | binds
B27 | binds
B28 | binds
B29 | binds
B30 | binds
B31 | binds
B32 | binds
B33 | binds
B34 | binds
B35 | binds
B36 | binds
B37 | binds
B38 | binds
B39 | binds
B40 | binds
B41 | binds
B42 | binds

Binder | binding result
B43 | binds
B44 | binds
B45 | binds
B46 | binds
B47 | binds
B48 | binds
B49 | binds
B50 | binds
B51 | binds
B52 | binds
B53 | binds
B54 | binds
B55 | binds
B56 | binds
B57 | binds
B58 | binds
B59 | binds
B60 | binds
B61 | binds
B62 | binds
